Measured values published in IntAct's records for PubMed 29039417.

B1: Protein PTHB1 (Homo sapiens), Q3SYG4 (parent)
chain: MSLFKARDWWSTILGDKEEFDQGCLCLANVDNSGNGQDKIIVGSFMGYLRIFSPHPAKTGDGAQAEDLLLEVDLRDPVLQVEVGKFVSGTEMLHLAVLHSRKLCVYSVSGTLGNVEHGNQCQMKLMYEHNLQRTACNMTYGSFGGVKGRDLICIQSMDGMLMVFEQESYAFGRFLPGFLLPGPLAYSSRTDSFLTVSSCQQVESYKYQVLAFATDADKRQETEQQKLGSGKRLVVDWTLNIGEQALDICIVSFNQSASSVFVLGERNFFCLKDNGQIRFMKKLDWSPSCFLPYCSVSEGTINTLIGNHNNMLHIYQDVTLKWATQLPHIPVAVRVGCLHDLKGVIVTLSDDGHLQCSYLGTDPSLFQAPNVQSRELNYDELDVEMKELQKIIKDVNKSQGVWPMTEREDDLNVSVVVSPNFDSVSQATDVEVGTDLVPSVTVKVTLQNRVILQKAKLSVYVQPPLELTCDQFTFEFMTPDLTRTVSFSVYLKRSYTPSELEGNAVVSYSRPTDRNPDGIPRVIQCKFRLPLKLICLPGQPSKTASHKITIDTNKSPVSLLSLFPGFASQSDDDQVNVMGFHFLGGARITVLASKTSQRYRIQSEQFEDLWLITNELILRLQEYFEKQGVKDFACSFSGSIPLQEYFELIDHHFELRINGEKLEELLSERAVQFRAIQRRLLARFKDKTPAPLQHLDTLLDGTYKQVIALADAVEENQGNLFQSFTRLKSATHLVILLIALWQKLSADQVAILEAAFLPLQEDTQELGWEETVDAAISHLLKTCLSKSSKEQALNLNSQLNIPKDTSQLKKHITLLCDRLSKGGRLCLSTDAAAPQTMVMPGGCTTIPESDLEERSVEQDSTELFTNHRHLTAETPRPEVSPLQGVSE
partner: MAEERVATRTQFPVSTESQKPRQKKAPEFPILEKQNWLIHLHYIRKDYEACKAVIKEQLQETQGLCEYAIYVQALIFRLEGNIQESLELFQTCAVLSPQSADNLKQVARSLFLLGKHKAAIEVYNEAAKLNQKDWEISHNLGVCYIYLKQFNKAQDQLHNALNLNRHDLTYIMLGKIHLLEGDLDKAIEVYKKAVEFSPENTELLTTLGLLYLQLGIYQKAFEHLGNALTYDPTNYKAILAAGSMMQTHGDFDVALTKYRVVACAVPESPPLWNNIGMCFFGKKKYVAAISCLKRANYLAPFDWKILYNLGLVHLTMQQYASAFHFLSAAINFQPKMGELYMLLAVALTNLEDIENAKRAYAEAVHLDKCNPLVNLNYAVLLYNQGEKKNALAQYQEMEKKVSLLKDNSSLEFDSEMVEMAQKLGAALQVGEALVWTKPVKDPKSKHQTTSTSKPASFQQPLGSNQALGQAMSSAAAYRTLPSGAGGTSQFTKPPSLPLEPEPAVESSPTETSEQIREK

Variants of: B1
Settings: with bbs4_human BBS4, Q96RK4

| Variant | effect of a mutation on the interaction |
| --- | --- |
| S488E | with no effect |
| Q453K | with no effect |
| G659E | with no effect |
| S639E | with no effect |
| C783K | with no effect |
| A675K | with no effect |
| T468K | with no effect |
| L780K | with no effect |
| V575K | with no effect |
| S880A | with no effect |
| H869K | with no effect |
| I776K | with no effect |
| I776A | with no effect |
| V838E | disrupting interaction strength |
| S828K | with no effect |
| I451K | with no effect |
| D435K | with no effect |
| I550K | with no effect |
| P881K | with no effect |
| L766C | disrupting interaction strength |
| E857A | with no effect |
| L757K | with no effect |
| S667A | with no effect |

| Variant | effect of a mutation on the interaction |
| --- | --- |
| T845K | with no effect |
| Y460K | with no effect |
| H694A | with no effect |
| S541E | with no effect |
| H867E | with no effect |
| H867A | with no effect |
| Q748E | with no effect |
| T688K | with no effect |
| H651K | with no effect |
| D480K | with no effect |
| G718D | disrupting interaction strength |
| G638K | with no effect |
| Q883E | with no effect |
| R528K | with no effect |
| S788E | with no effect |
| T549E | with no effect |
| T552E | with no effect |
| Y623E | with no effect |
| L611F | disrupting interaction strength |
| L870A | with no effect |
| A670K | with no effect |
| F632E | with no effect |
| T496A | with no effect |

| Variant | effect of a mutation on the interaction |
| --- | --- |
| A750K | with no effect |
| L680E | with no effect |
| K781E | with no effect |
| L727E | with no effect |
| L819E | with no effect |
| Y703H | disrupting interaction strength |
| P689K | with no effect |
| S568A | with no effect |
| R600G | disrupting interaction strength |
| Y495A | with no effect |
| P530S | disrupting interaction strength |
| P530K | with no effect |
| N796K | with no effect |
| P438E | with no effect |
| A833E | with no effect |
| K456E | with no effect |
| T771A | with no effect |
| L457A | with no effect |
| F527A | with no effect |
| P564A | with no effect |
| G823E | with no effect |
| Q569R | disrupting interaction strength |
| E714A | with no effect |

| Variant | effect of a mutation on the interaction |
| --- | --- |
| L825K | with no effect |
| L795A | with no effect |
| E663K | with no effect |
| D571A | with no effect |
| R678G | disrupting interaction strength |
| E408A | with no effect |
| E790A | with no effect |
| V557E | with no effect |
| F582K | with no effect |
| D410K | with no effect |
| W610K | with no effect |
| I649K | with no effect |
| L784E | with no effect |
| L436K | with no effect |
| R674A | disrupting interaction strength |
| R674E | with no effect |
| V506K | with no effect |
| G628K | with no effect |
| H546A | with no effect |
| E887A | with no effect |
